Assay results as given in the nanobody polyreactivity screen of Harvey et al. (2022).

Assay: yeast display, Sf9 membrane polyspecificity reagent, FACS + sequencing; frameworks hold sequencing errors
Outline: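 A nanobody's polyreactivity label depends on the gate it was sorted from. Yeast display cells were stained with 10% biotinylated, detergent-solubilized Sf9 membrane reagent for 1 hour at 4 °C, enriched on streptavidin microbeads and sorted by FACS. The low and high (top ~1%) gates were set on anti-HA fluorescence for expression and streptavidin fluorescence for reagent binding.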

| Sequence | polyreactivity (PSR sort gate) |
| --- | --- |
| QVQLVESGGGLVQAGGSLRLSCAASGRISFRYAMGWYRQAPGKERELVAAINRGGITNYADSVKGRFTISRDNAKNTVYLQMNSLKPEDTAVYYCAARYASPRYKSKMDYWGQGTQVTVSS | high polyreactivity |
| QVQLVESGGGLVQAGGSLRLSCAASGRISFRYAMGWYRQAPGKERELVAAINRGGITNYADSVKGRFTISRDNAKNTVYLQMNSLKTEDTAVYYCAARYASPRYKSKMEYWGQGTQVTVSS | high polyreactivity |
| QVQLVESGGGLVQAGGSLRLSCAASGRISGGYAMGWYRQAPGKERELVAVISSGGRTYYADSVKGRFTISRDNAKNTVDLHMNSLKPEVTGVYYCNAYTWGIVDNYDYWGQGTQVTVSS | low polyreactivity |
| QVQLVESGGGLVQAGGSLRLSCAASGRISNNAMGWYRQAPGKERELVAAITYRGSSTYYADSVKGRFTISRDNAKNTFYLQMISLKPEDTAVYYCAAQRSYAYEYWGQGTQVTVSS | high polyreactivity |
| QVQLVESGGGLVQAGGSLRLSCAASGRISQIYAMGWYRQAPWKERELVARITSTDSTYYADSVKGRFTISRDNAKNTVYLQMNSLKPEDTAVYYCAASWWSPYDYWGQGTQVTVSS | low polyreactivity |
| QVQLVESGGGLVQAGGSLRLSCAASGRISQNAMGWYRQAPGKERELVAAITFSGGSTYYADSVKGRFTISRDNAKNTVYFQMNSLKPEDTAVYYCNADWPAQWHYYDSKQDDYWGQGTQVTVSS | low polyreactivity |
| QVQLVESGGGLVQAGGSLRLSCAASGRISRVYAMGWYRQAPGKERELVAAITSSGGSTYADSVKGRFTISRDNAKNTVYLQMNSLKPEDTAVYYCAADSYWYRFLKSRYDYWGQGTQVTVSS | low polyreactivity |
| QVQLVESGGGLVQAGGSLRLSCAASGRISRYNTLGWSSQAPGKERELVAVISWSGASTYYADSVKGRFTISRDNAKNTVYLQMNSLKPEDTAVYYCAAYYRWYNYDYWGQGTQVTVSS | high polyreactivity |
| QVQLVESGGGLVQAGGSLRLSCAASGRISSLYAMGWYRQAPGKERELVAGITWRGGSTYYADSVKGRFTISRDNAKNTVYLQMNSLKPEDTAVYYCNAVWVQQVVGDGKRTWNFWYDYWGQGTQVTVSS | low polyreactivity |
| QVQLVESGGGLVQAGGSLRLSCAASGRISSQYAMGWYRQAPGKERELVAAISTSGDRTYYADSVKGRFTISRDNAKNTVYLQMNSLKPEDTAVYYCAKDGPYTYGRDIYEYWGQGTQVTVSS | low polyreactivity |
| QVQLVESGGGLVQAGGSLRLSCAASGRISSSYAMGWYRQAPGKEREFVAGITSIGGRTYYADSVKGRFTISRDNAKNTVYLQMNSLKPEDTAVYYCATTSSWRYGYWGQGTQVTVSS | high polyreactivity |
| QVQLVESGGGLVQAGGSLRLSCAASGRISSVYAMGWYRQAPGKERELVAAINWRVGSTYYADSVKGRFTISRDNAKNTVYLQMNSLKPEDTAVYYCAVDPVYGIIGSRYDYWGQGTQVTVSS | low polyreactivity |
| QVQLVESGGGLVQAGGSLRLSCAASGRISTYTMGWYRQAPGKERELVATISTHASTNYSDSVKGRFTISRDNAKYTVYLQKYSMKPEDNAVFYCATTVPVILYVTPSTYAVVGYEYWGQGTQVTVSS | low polyreactivity |
| QVQLVESGGGLVQAGGSLRLSCAASGRISWVYAKGWYRQPPGKERELVAAITFSGGSTYYADSVKGRFTISSDNEKNTVYLQMNSLKPEDTAVYYCAADVLAIYSHRYYRYDSWGQGTQVTVSS | high polyreactivity |
| QVQLVESGGGLVQAGGSLRLSCAASGRISYYYMGWYRQAPGKERELVAAISWNGGRTYYADSVKGRFTISRDNAKNTVYLQMNSLKPEDTAVYYCAAYTYSFRANHDYWGQGTQVTVSS | high polyreactivity |
| QVQLVESGGGLVQAGGSLRLSCAASGRITQYTMGWYRQAPGKERELVASIRKSGSTHYADSVKGRFTISRDNAKNTVYLQMNSLKPEDTAVYYCAARTYNPLTGYGYWGQGTQVTVSS | high polyreactivity |
| QVQLVESGGGLVQAGGSLRLSCAASGRIVGAYAMGWYRQAPGKERELVAAITSAGSTHYADSVKGRFTISRDNAKNTVYLQMNSLKPEDSAVYYCAADGIARAYVLFYAYDFLYDYWGQGTQVTVSS | low polyreactivity |
| QVQLVESGGGLVQAGGSLRLSCAASGRIVGLYAKGWYRQAPGKERELVATITRRAGSTYYADSVKGRFTISRDYAKNTVYLLMNSLKPEDTAVYYCAASALRFNSRFSHWYNYWGQGTQVTVSS | high polyreactivity |
| QVQLVESGGGLVQAGGSLRLSCAASGRIVKANAMGWYRQAPGKERELVAAIRESGGTTYYADSVKGRFTISRDNATNTVYLQMNSLKPEDTAVYYCAAAYRDTQYNYYYWGQGTQVTVSS | high polyreactivity |
| QVQLVESGGGLVQAGGSLRLSCAASGRIVKYAMGWYRQAPGKERELVAAISGSGGTTYYADSVKGRFTISRDNAKNTVYLQMNSLKPEDTAVYYCAASRPRPPSSRRMDYWGQGTQVTVSS | high polyreactivity |
| QVQLVESGGGLVQAGGSLRLSCAASGRIVKYAMGWYRQAPGKERELVAAISSSGGTTYYADSVKGRFTISRDNAKNTVYLQMISLKPEDTAVYYCAAPGTYTSRGSDYWGQGTQVTVSS | high polyreactivity |
| QVQLVESGGGLVQAGGSLRLSCAASGRIVPYAMGWYRQAPGKERELVARINFNGGSTYYADSVKGRFTISRDNAKNTVYLQMNSLKPEDTAVYDCAARVYRYRYSKYDYWGQGTQVTVSS | high polyreactivity |

| Sequence | polyreactivity (PSR sort gate) |
| --- | --- |
| QVQLVESGGGLVQAGGSLRLSCAASGRIVRRYARGWYIQAPGKERELVAAITNNGGNTYYADSVKGRFTISRDNAKNTVYLQMNSLKPEDTAVYYCKAGYYWGQGTQVTVSS | high polyreactivity |
| QVQLVESGGGLVQAGGSLRLSCAASGRIVYSNAMVWYRQAPGKERELVASITRGSRTNYADSVKGRFTISRDNAKHSVYLPMNSLKPEDTAVYYCARRYLLKPGFGRFYYWGQGNQVTVSS | high polyreactivity |
| QVQLVESGGGLVQAGGSLRLSCAASGRIWVNAMGCYRQAPWKESELVAAISTSSASTYYADSVKGRFTISRDNAKNTVYLEMNSLKPEDTAVYYCAARWARQLGSGRRGDYWGQGTQVTVSS | high polyreactivity |
| QVQLVESGGGLVQAGGSLRLSCAASGRIWVYYTMGWYRQAPGKERELVAAITGSGGSTYYADSVTGRFTISRDNATNTVYLQMNSLKPEDTAVYYCAVYDSYRKFKYWGQGTQVTVSS | high polyreactivity |
| QVQLVESGGGLVQAGGSLRLSCAASGRIWYYAMGWYRQAPGKERELVAAISFSGGTTYYADSVKGRFTISRDNAKNTVYFPMNSLKPEDTGVYYCNKVSVGRYKRDYWGQGTQVTVSS | high polyreactivity |
| QVQLVESGGGLVQAGGSLRLSCAASGRIYASYVMGWYRQAPGKERELVAAISYGGSRTYYADSVKGRFTISRDNAKNTVYLQMNSLKPEDTAVYYCAAKKYTNRGYYYWGQGTQVTVSS | high polyreactivity |
| QVQLVESGGGLVQAGGSLRLSCAASGRIYAVNAMRWYRQAPGKERELVARIRRIGGSTYYADSVKGRFTISRDNAKNTVYLQMNSMKPEDTAVYYCAKTLGRRHPGYDYWGQGTQVTVSS | high polyreactivity |
| QVQLVESGGGLVQAGGSLRLSCAASGRIYDDYAMGWYRQAPGKERELVAAISSSGGSTYYADSVKGRFTISRDNAKNTVYLQMNSLKPEDTAVYYCARYPPGRRRYEYWGQGTQVTVSS | high polyreactivity |
| QVQLVESGGGLVQAGGSLRLSCAASGRIYGDNTMGWYRQAPGKEREFVAAISFIGGSTYYADSVKGRFTISRDNAKNTVYLQMNSLKPEDTAVYYCATVERWTYWFVGYDYWGQGTQVTGSS | high polyreactivity |
| QVQLVESGGGLVQAGGSLRLSCAASGRIYGYAMGWYRQAPGKESELVAVITTSGGRTYYADSVKGRFTISRDNAKNTVYLQMNSLKPEDNAVYYCNVGKPSRRSYGTLIPAALYDSWGQGTQVTVSS | high polyreactivity |
| QVQLVESGGGLVQAGGSLRLSCAASGRIYLNAMGWYRQAPGKERELVAAISSRGASTYYADSVKGRFTISRDNAKNTVYLQMKSLKPEDTAVFYCAARLRNIYYFRMGYWGQGTQVTVSS | high polyreactivity |
| QVQLVESGGGLVQAGGSLRLSCAASGRIYPGYTMGWYRQAPGKERELVAGISRSGGRTYYADSVKGRFTISRDNAKNTVYLQMNSLKPEDTAVYYCAADGYPGRRYTGMDYWGQGTQVTVSS | high polyreactivity |
| QVQLVESGGGLVQAGGSLRLSCAASGRIYPVYAMGWYRPAPGKERELVAAITSGVSTNYADSVKGRFTISRDNAKNTVYLQMNSLKPEDTAVYYCNKDYTTYPYYEDGYWGLGTQVTVSS | low polyreactivity |
| QVQLVESGGGLVQAGGSLRLSCAASGRIYRGNTKGWYRQAPGKERELVAAITRGGSTSYADSVKGRFTISRDNAKNTVYLQMMSLKPEDTAVYYCATRTHGEGTRRDSWGQGTQVTVSS | low polyreactivity |
| QVQLVESGGGLVQAGGSLRLSCAASGRIYRSYAMGWYRQAPGKERDLVAAITKSGGGTYYADTVKGRYTISRVNAKNTVYLQMNSLNPEDTAVYYCGARGHGGYYYWGQGTQVTVSS | high polyreactivity |
| QVQLVESGGGLVQAGGSLRLSCAASGRIYRYYAMGWYRQAPGKERELVAAITRSGGTTYYADSVKGRFTISRDNAKYTVYLQMNSLKPEDTAVYYCNAGVGQKYDYWGQVTQVTVSS | high polyreactivity |
| QVQLVESGGGLVQAGGSLRLSCAASGRIYSTNAMRWYRQAPGKEREFVAAIYWIGGSTYYADSVKGRFTISRDNAKNTVYLQMNSLKPEDTAVYYCAAGVYDDYPWSYDIFNLYDYWGQGTQVTVSS | low polyreactivity |
| QVQLVESGGGLVQAGGSLRLSCAASGRIYTYYTMGWYRQAPGKERELVAAITVRGGRTYYADSVKGRFTISRDNAKNTVYLQMNSLKPEDTAVYYCAARGLVRSYDYWGQVTQVTVSS | high polyreactivity |
| QVQLVESGGGLVQAGGSLRLSCAASGRIYVYAMGWYRQAPGKEREMVAAITASDGSTYYADSVKGRFTISRDNAKNTVYLQMNSLKPEDTAVYYCAADIYEHNYYGYYYWGQGTKVTVSS | high polyreactivity |
| QVQLVESGGGLVQAGGSLRLSCAASGRIYWNTKGWYRQAPGKERELVASISTGGGRTYYADSVKGRFTISRDNAKNTVYLQMNSLKPEDTAVYYCAARRGAGYSRFNYWGQGTQVTVSS | high polyreactivity |
| QVQLVESGGGLVQAGGSLRLSCAASGRIYYSNVMGWYRQAPGTERELVAAISGRTGGTYYADSVKGRFTISRDNAKNTVYLQMNSLKPEDTAVYYCAARVIYYYGYCTYDYWGQGTQVTVSS | low polyreactivity |
